This test has as its target Hrs, purified recombinant ( (human, mouse or zebrafish …, UniProt O14964 1-777)). The test is described as follows: pull-down. The note with it: both partners purified.

One molecule from publication PMC3814348 (PLoS Pathogens, 2013) can be followed below.

The term Kd denotes the constant that tells how readily two partners part at equilibrium.

B1: EsxGMt EsxHMt-6XHis heterodimer (complex)
chain 1: MSLLDAHIPQLVASQSAFAAKAGLMRHTIGQAEQAAMSAQAFHQGESSAAFQAAHARFVAAAAKVNTLLDVAQANLGEAAGTYVAADAAAASTYTGF
chain 2: MSQIMYNYPAMLGHAGDMAGYAGTLQSLGAEIAVEQAALQSAWQGDTGITYQAWQAQWNQAMEDLVRAYHAMSSTHEANTMAMMARDTAEAAKWGG
With B1, the Kd was found to be 5.4 µM.
